# Source: paper doi:10.1101/2020.09.30.320564
# T1: La-module (La+RRM) (human, UniProt Q9BRS8 81-298)
# T1 sequence: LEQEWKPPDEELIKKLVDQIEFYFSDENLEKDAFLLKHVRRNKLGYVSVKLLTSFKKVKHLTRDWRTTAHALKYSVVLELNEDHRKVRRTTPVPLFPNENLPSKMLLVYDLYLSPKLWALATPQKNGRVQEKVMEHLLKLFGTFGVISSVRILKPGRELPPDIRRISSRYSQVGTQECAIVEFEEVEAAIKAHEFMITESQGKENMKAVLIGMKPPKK
# T2: RRM domain (human, UniProt Q9BRS8 183-298)
# T2 sequence: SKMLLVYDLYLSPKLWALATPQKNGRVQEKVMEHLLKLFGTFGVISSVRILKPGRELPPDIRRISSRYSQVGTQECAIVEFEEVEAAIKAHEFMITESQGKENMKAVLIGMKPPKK
# T3: La-module R121A (human, UniProt Q9BRS8 81-298, R121A)
# T3 sequence: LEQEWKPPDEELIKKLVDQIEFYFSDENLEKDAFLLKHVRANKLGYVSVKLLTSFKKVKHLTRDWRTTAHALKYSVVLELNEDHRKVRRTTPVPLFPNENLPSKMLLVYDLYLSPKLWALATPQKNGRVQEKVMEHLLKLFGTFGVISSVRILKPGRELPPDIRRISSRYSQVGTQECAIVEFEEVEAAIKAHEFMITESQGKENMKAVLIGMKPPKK
# T4: La-module N122A (human, UniProt Q9BRS8 81-298, N122A)
# T4 sequence: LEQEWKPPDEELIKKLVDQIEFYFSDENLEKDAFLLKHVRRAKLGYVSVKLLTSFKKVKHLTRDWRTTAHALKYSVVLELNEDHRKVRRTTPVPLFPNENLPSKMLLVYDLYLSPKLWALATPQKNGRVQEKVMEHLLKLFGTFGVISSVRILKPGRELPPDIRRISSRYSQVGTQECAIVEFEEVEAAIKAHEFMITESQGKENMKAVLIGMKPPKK
# T5: La-module K123A (human, UniProt Q9BRS8 81-298, K123A)
# T5 sequence: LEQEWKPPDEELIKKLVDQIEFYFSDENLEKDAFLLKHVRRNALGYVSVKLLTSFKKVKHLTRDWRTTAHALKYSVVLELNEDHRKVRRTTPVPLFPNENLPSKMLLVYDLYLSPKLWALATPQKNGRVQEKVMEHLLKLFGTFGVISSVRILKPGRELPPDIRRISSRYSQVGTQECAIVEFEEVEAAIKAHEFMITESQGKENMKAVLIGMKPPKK
# How the values were obtained:
# [1] = biological target: La-domain (human, UniProt Q9BRS8 81-182); test: EMSA
# [2] = biological target: T1, La-module (La+RRM); test: EMSA
# [3] = biological target: T2, RRM domain; test: EMSA
# [4] = biological target: T3, La-module R121A; test: EMSA
# [5] = biological target: T4, La-module N122A; test: EMSA
# [6] = biological target: T5, La-module K123A; test: EMSA
# [7] = biological target: T1, La-module (La+RRM); test: fluorescence polarization
Binder,binding result [1],binding result [2],binding result [3],binding result [4],binding result [5],binding result [6],binding result [7]
CCACAAAGAGUCUACAUGUCUAGGGUCUAGACAUGUUCAGCUUUGUGG (structured_RNA) [α1(I) 5'SL],binds,binds,,,,,
CACAAGGAGUCUGCAUGUCUAAGUGCUAGACAUGCUCAGCUUUGUG (structured_RNA) [α2(I) 5'SL],,,no binding,binds,binds,binds,binds
